Laboratory results reported in patent US20100098708A1 (AstraZeneca / MedImmune, published 2010).
Values joined by “and” are separate entries in the source; they are usually repeats but may differ in a detail not shown here. Equal values may be shown once.

B1: P11d4 Fab (Fab, V domains shown)
VH: QVTLRESGPALVKPTQTLTLTCTFSGFSLSTPGMSVGWIRQPPGKALEWLADIWWDGKKHYNPSLKDRLTISKDTSKNQVVLKVTNMDPADTATYYCARDMIFNWYFDVWGQGTTVTVSS
VL: DIQMTQSPSTLSASVGDRVTITCSPSSRVGYMHWYQQKPGKAPKLLIYDTMRLASGVPSRFSGSGSGTEFTLTISSLQPDDFATYYCFQGSGYPFTFGGGTKVEIK
notes: Fab
B2: A12a6 Fab (Fab, V domains shown)
VH: QVTLRESGPALVKPTQTLTLTCTFSGFSLSTAGMSVGWIRQPPGKALEWLADIWWDGKKDYNPSLKDRLTISKDTSKNQVVLKVTNMDPADTATYYCARDMIFNFYFDVWGQGTTVTVSS
VL: DIQMTQSPSTLSASVGDRVTITCSASSRVGYMHWYQQKPGKAPKLLIYDTFKLSSGVPSRFSGSGSGTEFTLTISSLQPDDFATYYCFQGSGYPFTFGGGTKVEIK
notes: Fab
B3: P12f2 Fab (Fab, V domains shown)
VH: QVTLRESGPALVKPTQTLTLTCTFSGFSLSTPGMSVGWIRQPPGKALEWLADIWWDDKKHYNPSLKDRLTISKDTSKNQVVLKVTNMDPADTATYYCARDMIFNFYFDVWGQGTTVTVSS
VL: DIQMTQSPSTLSASVGDRVTITCSLSSRVGYMHWYQQKPGKAPKLLIYDTFYLSSGVPSRFSGSGSGTEFTLTISSLQPDDFATYYCFQGSGYPFTFGGGTKVEIK
notes: Fab
B4: A13a11 Fab (Fab, V domains shown)
VH: QVTLRESGPALVKPTQTLTLTCTFSGFSLSTAGMSVGWIRQPPGKALEWLADIWWDDKKHYNPSLKDRLTISKDTSKNQVVLKVTNMDPADTATYYCARDMIFNWYFDVWGQGTTVTVSS
VL: DIQMTQSPSTLSASVGDRVTITCSPSSRVGYMHWYQQKPGKAPKLLIYDTYRHSSGVPSRFSGSGSGTEFTLTISSLQPDDFATYYCFQGSGYPFTFGGGTKVEIK
notes: Fab
B5: A13c4 Fab (Fab, V domains shown)
VH: QVTLRESGPALVKPTQTLTLTCTFSGFSLSTAGMSVGWIRQPPGKALEWLADIWWDGKKSYNPSLKDRLTISKDTSKNQVVLKVTNMDPADTATYYCARDMIFNFYFDVWGQGTTVTVSS
VL: DIQMTQSPSTLSASVGDRVTITCSLSSRVGYMHWYQQKPGKAPKLLIYDTMYQSSGVPSRFSGSGSGTEFTLTISSLQPDDFATYYCFQGSGYPFTFGGGTKVEIK
notes: Fab
B6: A1e9 Fab (Fab, V domains shown)
VH: QVTLRESGPALVKPTQTLTLTCTFSGFSLSTAGMSVGWIRQPPGKALEWLADIWWDGKKHYNPSLKDRLTISKDTSKNQVVLKVTNMDPADTATYYCARDMIFNWYFDVWGQGTTVTVSS
VL: DIQMTQSPSTLSASVGDRVTITCSLSSRVGYMHWYQQKPGKAPKLLIYDTFKLSSGVPSRFSGSGSGTEFTLTISSLQPDDFATYYCFQGSGYPFTFGGGTKVEIK
notes: Fab; also called Ale9
B7: AFFF(1) IgG (antibody, V domains shown)
VH: QVTLRESGPALVKPTQTLTLTCTFSGFSLSTAGMSVGWIRQPPGKALEWLADIWWDDKKDYNPSLKSRLTISKDTSKNQVVLKVTNMDPADTATYYCARSMITNFYFDVWGQGTTVTVSS
VL: DIQMTQSPSTLSASVGDRVTITCSASSSVGYMHWYQQKPGKAPKLLIYDTFKLASGVPSRFSGSGSGTEFTLTISSLQPDDFATYYCFQGSFYPFTFGGGTKVEIKR
notes: IgG1/kappa
B8: 1X-493L1FR Fab (Fab, V domains shown)
VH: QVTLRESGPALVKPTQTLTLTCTFSGFSLSTSGMSVGWIRQPPGKALEWLADIWWDDKKDYNPSLKSRLTISKDTSKNQVVLKVTNMDPADTATYYCARSMITNWYFDVWGQGTTVTVSS
VL: DIQMTQSPSTLSASVGDRVTITCSASSSVGYMHWYQQKPGKAPKLLIYDTSKLASGVPSRFSGSGSGTEFTLTISSLQPDDFATYYCFQGSGYPFTFGGGTKVEIK
notes: also called IX-493L1FR
B9: AFFF(1) Fab (Fab, V domains shown)
VH: QVTLRESGPALVKPTQTLTLTCTFSGFSLSTAGMSVGWIRQPPGKALEWLADIWWDDKKDYNPSLKSRLTISKDTSKNQVVLKVTNMDPADTATYYCARSMITNFYFDVWGQGTTVTVSS
VL: DIQMTQSPSTLSASVGDRVTITCSASSSVGYMHWYQQKPGKAPKLLIYDTFKLASGVPSRFSGSGSGTEFTLTISSLQPDDFATYYCFQGSFYPFTFGGGTKVEIK
notes: Fab; also called AHH(1)
B10: A4B4 IgG (antibody, V domains shown)
VH: QVTLRESGPALVKPTQTLTLTCTFSGFSLSTAGMSVGWIRQPPGKALEWLADIWWDDKKHYNPSLKDRLTISKDTSKNQVVLKVTNMDPADTATYYCARDMIFNFYFDVWGQGTTVTVSS
VL: DIQMTQSPSTLSASVGDRVTITCSASSRVGYMHWYQQKPGKAPKLLIYDTFFLDSGVPSRFSGSGSGTEFTLTISSLQPDDFATYYCFQGSGYPFTFGGGTKVEIKR
notes: IgG1/kappa

target: RSV F protein (immobilised antigen of Example 6.1) (respiratory syncytial virus); assay: BIAcore
Sequence (P03420 26-524): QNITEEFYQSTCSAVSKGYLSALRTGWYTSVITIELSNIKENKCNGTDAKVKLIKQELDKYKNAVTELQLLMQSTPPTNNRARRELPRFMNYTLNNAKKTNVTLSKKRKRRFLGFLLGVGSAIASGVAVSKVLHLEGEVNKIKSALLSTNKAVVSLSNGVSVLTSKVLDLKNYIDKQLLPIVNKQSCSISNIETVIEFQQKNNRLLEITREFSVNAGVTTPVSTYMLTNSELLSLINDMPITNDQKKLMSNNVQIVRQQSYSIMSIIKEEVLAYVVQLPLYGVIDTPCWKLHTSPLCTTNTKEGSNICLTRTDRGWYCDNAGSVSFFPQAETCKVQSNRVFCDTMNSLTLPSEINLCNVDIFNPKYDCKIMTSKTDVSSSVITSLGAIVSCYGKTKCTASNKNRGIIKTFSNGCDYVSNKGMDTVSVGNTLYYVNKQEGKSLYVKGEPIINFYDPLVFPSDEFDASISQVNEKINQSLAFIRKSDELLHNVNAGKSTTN

B1 was tested. Which koff did it give?
Its koff is 0.000717 s⁻¹.

And the kon?
The kon was 570000 M⁻¹ s⁻¹ and 572000 M⁻¹ s⁻¹.

For B2, which koff is on record?
Its koff is 0.00023 s⁻¹.

And the kon?
The kon was 743000 M⁻¹ s⁻¹.

How did the koff turn out when B3 was run?
The koff was 0.000282 s⁻¹.

What about the kon of the same binder?
Its kon is 663000 M⁻¹ s⁻¹.

With B4 as the binder, how does the koff read?
The koff was 0.00025 s⁻¹.

And the kon?
The kon was 735000 M⁻¹ s⁻¹.

B5 was tested. Which koff did it give?
Its koff is 0.00028 s⁻¹.

What about the kon of the same binder?
Its kon is 781000 M⁻¹ s⁻¹ and 735000 M⁻¹ s⁻¹.

What does the source list for B6?
koff: 0.000453 s⁻¹; kon: 790000 M⁻¹ s⁻¹

B7 was tested. Which koff did it give?
The koff was 0.000274 s⁻¹ and 0.000266 s⁻¹ and 0.000206 s⁻¹.

And the kon?
The kon was 108000 M⁻¹ s⁻¹ and 96000 M⁻¹ s⁻¹ and 124000 M⁻¹ s⁻¹.

What does the source list for B8?
koff: 0.00065 s⁻¹; kon: 185000 M⁻¹ s⁻¹

What does the source list for B9?
koff: 0.000245 s⁻¹ and 0.000446 s⁻¹ and 0.000268 s⁻¹; kon: 212000 M⁻¹ s⁻¹ and 156000 M⁻¹ s⁻¹ and 186000 M⁻¹ s⁻¹

target: F protein of RSV Long strain on infected HEp-2 cells (respiratory syncytial virus Long strain, UniProt P12568 26-574); assay: cell-based or functional assay
Sequence (P12568 26-574): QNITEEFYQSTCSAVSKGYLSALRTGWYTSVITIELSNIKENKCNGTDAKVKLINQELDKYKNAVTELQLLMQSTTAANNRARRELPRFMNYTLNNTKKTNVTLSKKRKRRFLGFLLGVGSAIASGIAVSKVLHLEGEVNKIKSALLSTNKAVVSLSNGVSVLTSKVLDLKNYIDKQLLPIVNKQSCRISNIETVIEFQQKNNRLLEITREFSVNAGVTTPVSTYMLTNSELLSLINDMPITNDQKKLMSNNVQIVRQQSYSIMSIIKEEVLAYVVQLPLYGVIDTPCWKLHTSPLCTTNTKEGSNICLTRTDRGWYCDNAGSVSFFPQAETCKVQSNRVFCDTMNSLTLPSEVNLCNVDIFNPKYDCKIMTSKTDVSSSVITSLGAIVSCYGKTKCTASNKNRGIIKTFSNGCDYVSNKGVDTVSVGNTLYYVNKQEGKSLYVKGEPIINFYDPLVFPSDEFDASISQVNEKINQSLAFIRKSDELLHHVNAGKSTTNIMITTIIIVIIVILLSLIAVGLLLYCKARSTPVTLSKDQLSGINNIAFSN

With B1 as the binder, how does the “RSV microneutralization IC50” value read?
The value was 0.292 µg/ml and 5.84 nM.

target: Bac-F (respiratory syncytial virus); assay: BIAcore, (1:1)
Sequence (P03420 26-524): as the sequence (P03420 26-524) above

For B10, which Kd is on record?
The Kd was 0.02 nM.

What about the koff of the same binder?
Its koff is 1.06e-05 s⁻¹.

And the kon?
The kon was 434000 M⁻¹ s⁻¹.

What about the “number in parentheses after KD (ratio to palivizumab = 1)” value of the same binder?
The value was 195 fold.
